assay: soluble on expression in E. coli; label from the status in PepcDB or PDB records

| Sequence | soluble on expression in E. coli |
| --- | --- |
| MSLGASTNWDDHAIIIFGYPETIANSIILHFANFGEILEDFRVIKDFKKLNSKNMSKSPSLTAQKYPIYTGDGWVKLTYKSELSKSRALQENGIIMNGTLIGCVSYSPAALKQLASLKKSEEIINNKTSSQTSLSSKDLSNYRKTEGIFEKAKAKAVTSKVRNAEFKVSKNSTSFKNPRRLEIKDGRSLFLRNRGKIHSGVLSSIESDLKKREQASKSKKSWLNRLNNWLFGWNDLEGHHHHHH | soluble |
| MGSDKIHHHHHHMERVALACWDDFEAQLKKLDEEANAVEDARGDVRASGYLFRGHGDADYPLQTSLERFFARPLSLADYYRLALVAKPRLEAFTGRRWELPSQEAYAAWLEGAAGSTLDDYPAYDYLAYLRHHGFPSPLLDWTQSPYVAAFFAFRYPLPGAKAVAVYAYRDAPDAKTASSGAARIHRQGPYVSSDKRHFLQQSQYTFCTRTDDAGVVGYIGHEQAFRDVSPADRIRKFLIPLSARRQALMQLNRMNINAFSLFGSEDSLVETIAISDIYLRGGDL | not soluble |
| MGSDKIHHHHHHMKTIAIRDVTGIMEPLPGFSVVRTDGSDGQRSIKLNGYKTTNNQYGYQFVKNENTVVYDDEEYIIKTHRERTYRKGVGVEATAIHRIFDDLRNNYIYDEKTGTLRLDAMLSFALEGSGYTFEIDTTDLPASVRVENFGWNNSLALFRDILEKFGAEFDYKGKKIYVAKKFGIQRDEPFLRYRFNVKDPEKEIDTSSFATYIRGYGKKDDKGNYLFAEYTSPLAKIYGIKHADPVKDERYTDKDSLLAAMKKQLNDNIDISLTFTAIELESMGLRDIKKGDYVWCVIEPFDLNVQLRAVSREDYSDETKSPTFTFGTITKKASDIIASFNTTKKAVDKVIDTSTGKIKDSAIDTTGLTTKSEFQSHVDNKIVHITAEERAAWNAASNSIGDLTFITWSTPTLKNGWIQYTANTESYPIQYGKDAIGTVNIRGAVSSGVVGSSTPVFTLPAGFRPPFPHLFIGVSSVATDGTPQYFRGIIKTNGDVCIENISNKDTPNQFIGIYTQFKAI | not soluble |
| MSLSPTKTRRILFLLPYVADLSVGDFSKGLNPVMQDKQIDVMMTTLDFLQNKTAKELINEFDGLIYYALDTEQHLDLLFELSLKEFPVVILDKKIYELPFPTVLSDNFQGGALAASYLIEQGHSKIAYLFGTQTHPQSVRQRYLGYLEALDKAGLTFHTSLDDKSATLDELLSYITKYEVTAFVCENDVVAIQTMNLLRQHGYHIPEDFSIIGFDDIQAAALVDPPLTTIAQDFEQLGKLAGDALVTWLETKDRPSDSKFPVSFIKRQSTKEGHHHHHH | soluble |
| MSLDTIAVVLKQPQQVELSRLSLTAPTDDDIVVDVAWSGVSTGTERLLWSGRMPQFPGMGYPLVPGYESVGEVVEAGSATDLKPGQMVFVPGAKCFGEVRGLFGASASRLVVPAKRVVPLDSKLGERGILIALAATAYHAIAARGATPPDCIVGHGVLGRLLARISIALGNPPPVVWEKNPIRSGGAEGYAVVDPASDERRDYRSIYDVSGDPKLLDTLISRIAATGEIVLAGFYSEPLSFSFPPAFMREARIRVAAEWQPPDIGATKALIESGKLSLDGLITHHQEAASAPDAYRIAFEDPACLKMVLNWRPSEGHHHHHH | soluble |
| MEEKKDFYDTDELRDFMALVEKTNDIKKIALFRILAFTGIRKGELLALEWKDYRKSTLDINKAISHSPVGYEILPPKANSNRLLSLDEKTCKILDELHQTYPESTRIFESENGGMLSPSKPRKWLLEITKEKEIEPIRIHAFRHTHASLLFESGMSLKQVQYRLGHADLKTTMNIYTHITKLEHHHHHH | soluble |
| MTDTDTQADRFEQMMWQAVDKLFEQHDGKLESMDGREQELVLIWRTEADIGNGSILQFVCNWGFPAAEKTCSVLKKIGAVHSAMLIHRAADALDKEIRRLQSEGKNLKEMWDITSRQQNRLTAEQSG | not soluble |
| MKFMQYTEKVMQHFMNPHNVGVIENPDGYGKVGNPSCGDIMEIFIKVDNNIISDVKFRTFGCASAIASSSISTDMIIGKTVEEALKLTNKQVVDELGGLPAVKMHCSVLAEEAIKMAIEDYISKRDGKLEHHHHHH | soluble |
| MEDGDSAEAFRAFAAGVALQREDPSPLWVQLKNRIEHAILDGTLPENARLPSEQAMCSMFDLSRPVIRNALQALAGEGRVIKQPRKGMFVAPRAPELAFMTSALGVFDDLSAKGYKVTVKTYEFGLHPANEDERRVFKLPEGFQVIRALRVYHANETPLTHTLISLPAHRLPGFEKLDMEGRSIFGTIRELYGLTVARADRWLKGAIVPPEVAARMGVPPGGAMIAIESVAYDHDGNALEYYRAYYNSEVAPIHVATDAH | not soluble |
| MSLTVQDLHFKNKVNFIGGQYVPSNESDTIDILSPSTGKVIGEIPAGCKADAENALEVAQAAQKAWAKLTARTRQNMLRTFANKIRENKHILAPMLVAEQGKLLSVAEMEVDVTATFIDYGCDNALTIEGDILPSDNQDEKIYIHKVPRGVVVGITAWNFPLALAGRKIGPALITGNTMVLKPTQETPLATTELGRIAKEAGLPDGVLNVINGTGSVVGQTLCESPITKMITMTGSTVAGKQIYKTSAEYMTPVMLELGGKAPMVVMDDADLDKAAEDALWGRFANCGQVCTCVERLYVHASVYDEFMAKFLPLVKGLKVGDPMDADSQMGPKCNQREIDNIDHIVHEAIKQGATVATGGKTATVEGFEGGCWYEPTVLVDVKQDNIVVHEETFGPILPIVKVSSMEQAIEFCNDSIYGLSAYVHTQSFANINQAISDLEVGEVYINRGMGEQHQGFHNGWKQSGFGGEDGKFGLEQYLEKKTVYINEAEGHHHHHH | soluble |
| MKPSHQQQKQASAAKDEKKDIIPLSAEKADGAEGWLNNSTILYTASNPTKTELFPYRIFTGKAKKLYQTDGQIVDVQINAREQMILLQITHSQKTAVVLLNAEGETLYEKDYETYELEAAWNQYDPYQMMVTEFNENWDFHTYQVNAKKDESFLSPVQVPFIHWTSKNTFDYVKEGRDDKTGPLYTFDTASKTEQKLEDNVLFFDSFHQMSFTVKSASGGKGTYQFKTPQSTSPVTAKWPLQAKYTSLAPMEYDYDEAGSLFYTFKQSGDAYKLAAINVASGETKDLVSLREMEPIQISPNGKYALYGFHFEQIILLKSHETKQLIIDQKEMELEHHHHHH | soluble |
| MSATPPTTPAPTAAASAGKGLHSRAYNGLIKACDKYVPPKMRPLWMHPAGPKTIFFWAPIVKWSLVIAGLSDLTRPADKISPNGCLALGATNLIWTRYSLVIIPKNYSLFAVNLFVSLTQLFQLGRYYNYQWEQSRLEKNGEQCPAIEASLLEHHHHHH | not soluble |
| MGHHHHHHSHMVSSNFWFKYPKTCSKVEHFVSILGKCFESPWTTKALSETACEDSEENKQRITGAQTLPKHVSTSSDEGSPSASTPMINKTGFKFSAEKPVIEVPSMTILDKKDGEQAKALFEKVRKFRAHVEDSDLIYKLYVVQTASPFPNQ | not soluble |
| MQKLPHSLFFGPAGCGKTTFARVVAKDFGLDFYEFDGGNFKLEDLRKIIENYKNSLYKPLIFIDEIHRLSKTQQEMLLIPMENYRCIVIGASTENPYFVLSSGIRSRSMLFEFKNLGQKDLELLLERVQQKIAFKIEDNAKEFLLKSFDARAMLNLLEFALVLNEKEITLENLKKLRNGVNSEGVSSKDTHYILASALIKSLRGSDVDAAIYYLARLIDAGESADFIARRLIIFASEDISNADPNALNLAVSTLTAVKNIGYPEARIILSQCAVYLASAPKSNSSYNAINKALDYVKNNPALEIPNYLNNNHPEKKNYLYPHNFGGWVKQNYLSANLKFYESKGIGEEARLLENLSKLKNIKS | soluble |
| MNTTPLVIGAYAALPATRADQETFYDRLHADLEATGLELPFRDSIHDDPAWLASQLAGRFTDSIITAIPGTMMRVWDGGTFGLASPDDDGRNAAIAFTRSIIDSARALDDAAGHRVIAGIHIHSAPSVTANRDQFLRSLTELLEGMDNDDPRLIIEHCDRYNEAVTGEKRFLSIEQEIAIAKETGIGITVNWGRSAMEAYDTQLPARHIQALVAEGVFEGVMFSGAGDKENTFGAAWADLHLPHHVDEPASLMDDDRIAECLSAAGGAQKYHGAKIQAPADVDVATRVTMLGHITRHLR | soluble |
| MSLNPVNGAILSIEISHPNGFEIDENISAYHDAEYYMDRIFDSGNYDSLIVLTSIKILSQHWEIDNDMVVTSQSIRQLAIDTINSKAESGTIKNYWFKLQSLCEEFKNLSQETLSLSVFDNQVLTLNVNGHGIFRKSAFFESFANQKLNSADGKLMLIFNKFETFISRKSYHKLHEELLQLRKISANEITNLFTKHIEGKISTNEIQTILKDLEQIPGIVEIVKSLIGSSGFELIVDANSISSKELGAFHKISTVMIFKNIMETHKTLLLDLVVLFLTCETNDQIVEFVNQIRATLVQYDVMEVVFTTCLNKGEVETKNMGQVQNSIFWSSVVATHSQLKRLIESLQLNDGYEYFYNNVLPDDYLVDVVIELINNKEYFFLQKKFLTKLNQENKVEKLLVGLIYLFNNDVKSFYKIFNDYSNFQNFTENKIKNLNQDVNLQKFIEALLSNPSKSQYFHGLSKLVQSQIKTNDNKSQQEEHCFIEIASDFETLAIENEGHHHHHH | soluble |
| SDIEAYFERIGYKNSVNKLDLATLTEVLQHQMRAVPFENLSMHCGEAMCLGLEATFDHIVRKKRGGWCLQVNHLLYWALTKMGFETTMLGGYVYITPVNKYSSEMVHLLVQVTISDRNYIVDSAYGSSYQMWEPLELTSGKDQPQVPAIFRLTEENGTWYLDQIRREQDVPNQEFVNSDLLEKSKYRKIYSFTLEPRTIEDFEYVNTYLQTSPASVFVSTSFCSLQTSEGVCCLIGSTLTSRRFSYKDNVDLVEFKSLTEEEIEDVLKTTFGISLEKKFVPKHGELVFTI | soluble |
| MTADRTGHCLCGGVQIAVATVSHEIGACHCEMCRRWTGSAFVTMMVPEAAMTVTGAEHVKAYASSAWAERCFCGSCGSTLWYRLTGPGMPRDYYMAAGLLDDLSGIRLAHEIYIDRKPDAWSFAGPTHQMTEAEFLATLPASPEE | not soluble |
| MRSVRRREALREWIMAKLYFNYSTMNAGKSTMLLQASYNYQERGMRTLIFTAAFDDRAGVGRVASRIGLSSEARTFDENTDLFAEVAALHAQAPVACVFVDEANFLSEHHVWQLANIADRLNIPVMTYGLRTDFQGKLFPASKELLAIADELREIRTICHCGRKATMVARFDSEGKVVTEGAQIEVGGNGKYVSFCRRHWVETFNCSLEHHHHHH | not soluble |
| MGSDKIHHHHHHMTIQIDLPETSTNKIIYSDECKDILNLSVAKIQEMFKSSGIILFRGFGITHELMQVFAEQFSSRLTRDDDKPLVEPNGFVSLVDIGMHEILPHRENGSSPFSPDAVWFCCTVPAAEGGETLFWDGIQVWQKLSEELRKLFISKKIKFVHKFPADKWKHFLGSDATISDAKRVLDGFNNVKYQIDQEESIYTEYICSAVLQTKYGNQNAFVNDIITGNSNLKGSVNLELESALTFEDGSLIPDAAIEEIEKVMYSLTQEIRWKPGDLVMIDNSRFLHGRRAFSDNRRRLFSLLSYLNF | not soluble |
| MSLGKTLFDKLWNRHVIYGKEGEPQLLYVDLHLIHEVTSPQAFEGLRMENRPLRRPDKTFATMDHNVPTEDIFNIQDLVAKKQIEALQTNCEEFGVTLADMGSDRQGIVHMVGPETGLTQPGKVIVCGDSHTATHGAFGAIGFGIGSSEVEHVFATQTIWQQKPKSMGIEINGNLPKGVYAKDIILHLIATYGVAFGTGYAVEYYGETIRNMSMEERMTICNMAIEGGAKMGMMAPDETTFEYVRGREYAPADMDKAISDWKTLQTDPDAEYDLHIKMDASILEPYVTWGTNPEMGVPFSKAFPEIKDMNYERAYEYMGLKPGQTAEEIELGYVFIGSCTNARLSDLEEAARIVKGNKVKNNIRALVVPGSRQVRNAAESIGLDKIFIEAGFEWREPGCSMCLGMNPDQVPDGVHCASTSNRNFEGRQGKGARTHLVSPAMAAAAAINGHFIDIRKEAVISGGNEGHHHHHH | not soluble |

Source: the DeepSol protein solubility set
